Reference: US20040265295

Target: T1, His-PIPKIγ661 C-terminus, wild-type (439-661)
T1 chain: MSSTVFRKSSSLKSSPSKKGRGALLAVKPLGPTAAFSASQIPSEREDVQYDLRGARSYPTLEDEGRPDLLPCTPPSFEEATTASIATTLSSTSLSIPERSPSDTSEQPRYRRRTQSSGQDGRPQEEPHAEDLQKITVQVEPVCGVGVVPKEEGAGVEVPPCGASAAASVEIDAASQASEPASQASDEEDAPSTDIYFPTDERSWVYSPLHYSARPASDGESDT

B1: focal adhesion-associated kinase (FAK) (protein)
chain: MAAAYLDPNLNHTPSSSTKTHLGTGMERSPGAMERVLKVFHHFESSSEPTTWASIIRHGDATDVRGIIQKIVDSHKVKHVACYGFRLSHLRSEEVHWLHVDMGVSSVREKYELAHPPEEWKYELRIRYLPKGFLNQFTEDKPTLNFFYQQVKSDYMQEIADQVDQEIALKLGCLEIRRSYWEMRGNALEKKSNYEVLEKDVGLKRFFPKSLLDSVKAKTLRKLIQQTFRQFANLNREESILKFFEILSPVYRFDKECFKCALGSSWIISVELAIGPEEGISYLTDKGCNPTHLADFNQVQTIQYSNSEDKDRKGMLQLKIAGAPEPLTVTAPSLTIAENMADLIDGYCRLVNGATQSFIIRPQKEGERALPSIPKLANSEKQGMRTHAVSVSHCQHKVKKARRFLPLVFCSLEPPPTDEISGDETDDYAEIIDEEDTYTMPSKSYGIDEARDYEIQRERIELGRCIGEGQFGDVHQGVYLSPENPALAVAIKTCKNCTSDSVREKFLQEALTMRQFDHPHIVKLIGVITENPVWIIMELCTLGELRSFLQVRKYSLDLASLILYAYQLSTALAYLESKRFVHRDIAARNVLVSSNDCVKLGDFGLSRYMEDSTYYKASKGKLPIKWMAPESINFRRFTSASDVWMFGVCMWEILMHGVKPFQGVKNNDVIGRIENGERLPMPPNCPPTLYSLMTKCWAYDPSRRPRFTELKAQLSTILEEEKVQQEERMRMESRRQATVSWDSGGSDEAPPKPSRPGYPSPRSSEGFYPSPQHMVQTNHYQVSGYPGSHGIPAMAGSIYQGQASLLDQTELWNHRPQEMSMWQPSVEDSAALDLRGMGQVLPPHLMEERLIRQQQEMEEDQRWLEKEERFLKPDVRLSRGSIDREDGSFQGPTGNQHIYQPVGKPDPAAPPKKPPRPGAPGHLSNLSSISSPADSYNEGVKLQPQEISPPPTANLDRSNDKVYENVTGLVKAVIEMSSKIQPAPPEEYVPMVKEVGLALRTLLATVDETIPALPASTHREIEMAQKLLNSDLGELISKMKLAQQYVMTSLQQEYKKQMLTAAHALAVDAKNLLDVIDQARLKMLGQTRPH
B1 was tested, and the “in vitro kinase assay, phosphorylation of the recombinant substrate” value was “while FAK does not”.
